B1: HR1 (heptad repeat 1) region of the MHV A59 spike protein, residues 968-1027 (domain or fragment)
chain: ENQKMIASAFNNALGAIQDGFDATNSALGKIQSVVNANAEALNNLLNQLSNRFGAISASL
B2: nMHV 2-Helix (new construct of the MHV fusion core: shortened HR1, 22-residue linker, HR2) (domain or fragment)
chain: ENQKMIASAFNNALGAIQDGFDATNSALGKIQSVVNANAEALNNLLNQLSLVPRGSGGSGGSGGLEVLFQGPDLSLDFEKLNVTLLDLTYEMNRIQDAIKKLNESYINLKE

How the values were obtained:
[1] = target: the molecule itself; assay: crystal structure
[2] = target: the molecule itself; assay: crystal structure; remark: listed apart in the source

| Protein | stoichiometry N [1] | binding result [2] |
| --- | --- | --- |
| B1 | 3 | – |
| B2 | – | binds |
| ENQKMIASAFNNALGAIQDGFDATNSALGKIQSVVNANAEALNNLLNQLS (domain or fragment) [shortened HR1 region of the MHV A59 spike protein, residues 968-1017] | – | binds |
